Results reported in the DeepSol protein solubility set.

Test: soluble on expression in E. coli; label from the status in PepcDB or PDB records
For “MGSDKIHHHHHHMRKYSQRHIPVMVREVIEFLKPEDEKIILDCTVGEGGHSRAILEHCPGCRIIGIDVDSEVLRIAEEKLKEFSDRVSLFKVSYREADFLLKTLGIEKVDGILMDLGVSTYQLKGENRGFTFEREEPLDMRMDLESEVTAQKVLNELPEEELARIIFEYGEEKRFARRIARKIVENRPLNTTLDLVKAVREALPSYEIRRRKRHFATKTFQAIRIYVNRELENLKEFLKKAEDLLNPGGRIVVISFHSLEDRIVKETFRNSKKLRILTEKPVRPSEEEIRENPRARSGRLRAAERIEEGGD”, the “soluble on expression in E. coli” value was “not soluble”.
With “MSLDKPVIQIHTDNSSLIFRVADNGRLYQSYLGKKLNHEADISHLPQGTEAYITHGMEDYFEPAIHILHNDGNPSLLLKYVSHETKAVSQGVNETIITLGDDKYPVTVKLHYVTYPAEDIIKTYTEISHKEKKPVVLHQYASSMLHLNRAKYYLTEFSGDWAHEANISDQPLEFGKKVLDTKLGARANMFTPPFFQLSLDQLATENCGEVLVGTLGWTGNFRFTFEVDNKNELRIISGINPYASEYYLPAGVVFRTPDFYFTYSANGKGKASRNFHDWARRYQLKDGDETRMTLLNNWEATYFDFNEEKLIGLIGDAAGLGVDMFLLDDGWFANKYPRSSDHQGLGDWDETADKLPNGIGRLVEEATKKGIKFGLWIEPEMVNPKSELYEKHKDWVIHLPNRDEYYFRNQLVLDLSNPKVQDFVFGVVDDLMTKYPGIAFFKWDCNSPITNIYSSYLKEKQSHLYIDYVRGLYNVLERIKTKYPDLPMMLCSGGSGRIDYETLRYFTEFWPSDNTDPIERLFIQWGYSQLFPAKTLCAHVTTWNHDASIKFRTDVAMMGKLGFDIKLSDLNDNEKKFCRDAVTNYNHLKPVVLEGDMYRLVSPYSGNHTSTQYVGKDKKGAVVFAFDIYSRYGEKLLPVRLQGLDAGRQYRVKEINLMPGTNSEGHHHHHH” the “soluble on expression in E. coli” value was “not soluble”.
For “FFAAITAAERRCWIASPYFVPDLDILAALKHAALRGVDVRLLVPDEADHTIPWLAAFAYFDEVREAGVRVMRYTDGFLHQKVFVVDDTIAAVGTTNLDNRSFRLNFEAMALFFDATVAGQVTAMLEHDFASSTELTRSLAAQPVFIRYGAPLARLFAPIL”, the “soluble on expression in E. coli” value was “not soluble”.
With “MHCALLYSGGKDSTLAALLLDPFYDVTLVSGSFGVRDTDPAQESATAVGFDHVTVDLDPDVAHDAVKQMFDDGYPRNGIQRVHEHAVETVARADWVADADGLGTLDAVADGTRRDDRVPTVDRPLAQSIEDRFDVDYLAPLAGIGRGAIDAMAADRLVVESGPSAEIPKADYEVELRALLRKRYGEGAVADVFPEHTQSRVQGLR” the “soluble on expression in E. coli” value was “not soluble”.
In the case of “MKILKDTVLFGLFASYADGVRNGEEKLSAAYDDFATLLATLPTDGTNICAQLRRLFYTKIELRGIQETVSTNGMERHVLFDVYIGKALALLDAEEQMMKEVLRHGGTEAMGLKEEAVCRNGKKGSVTLTWNGTDSDLIELVAALMAAGVIGTAEGRELKVVDVIRVFEEVFHLKINALYTKRGKVFDRCTDTTPFIDSLRRSYNRMLDARLA”, the “soluble on expression in E. coli” value is reported as “not soluble”.
In the case of “MSLDPVGPISDEETSYYVRLQYNGEILPLFTKIEGIEYKKATDIHNPLKASFIAGGGAFGYKMDDIRVDVEGLYSQLNKNDVTGAAFNPDTVADSLTAISGLVNVYYDIAIEDMPITPYVGVGVGAAYISTPLKDAVNDQKSKFGFAGQVKAGVSYDVTPEVKLYAGARYFGSFGAHFDKDTAAASKDKGELKVLYSTVGAEAGVAFNFEGHHHHHH”, the “soluble on expression in E. coli” value is reported as “not soluble”.
In the case of “EGCYVATLEKCATCSQPILDRILRAMGKAYHPGCFTCVVCHRGLDGIPFTVDATSQIHCIEDFHRKFA”, the “soluble on expression in E. coli” value is reported as “soluble”.
With “MKIESSCPLPVKPGMTVAQATEACYQSELGADTYVEEFEGWVDIEALEPGDPGRKIVCCVEDGICITVEMKYMELPITDTFYGVDLNCQPGEGWMTSLERVARALEDKGLTVVKRDSYILLPDVFVAIEVGETIGWFDPAYWSREEFLEEAILA” the “soluble on expression in E. coli” value was “not soluble”.
For “MIEWQLAELIPHAGDMILIDQVLDFDEEQINTRLTVRADGLFNQPDGSLPAWLGIELMAQSVAAYAGCQARSKGEAVKLGFLLGSRKFDCNVARFPAGSELHIHAIRSLQDDSGMGVFECTLTGPDITALARLNVYCPPNTADYLAEGAPALEHHHHHH”, the “soluble on expression in E. coli” value was “not soluble”.
For “MGHHHHHHSHINTPEQTVPYGLSNYRGSFRGKRSAGPLPGNLQLSHRPHLRCACVGRYDKACLHFCTQTLDVSSNSRTAEKTDKEEEGKVRGANRGLCQRRLKSRTNKASRL”, the “soluble on expression in E. coli” value was “not soluble”.
For “MSLKIESNAFRLIEPGVFKKDTLTHDFEEKDIIVKPTKASVCHADLRYYTGNRRPEALAKKLPMALFHEGIGIVEDSKHPDFQQGDKVVIVPNIPSHLRKGTYPTTSFQDNYDENAVFMGSGFDGICQDRMVVSGDNVVKVPTDLDEDVALLAELCSVSLFPINQLDEITTETSPQVAIFGDGPVGYLAATALHYIYGIDKANLIVFGAVQEKLAAFEDFATTHLVFDFDFNQYRGVHTVFECTGGKFSESAINQAIDLIDRQGHIVLMGVTEERVGINTRDVLEKGLTFSGSSRSTKREFEQLIHAFSNKQYQQALRQLIPETYYHIHDTSDLKEAMDDTAAHKGWKKTYLQYHEGHHHHHH”, the “soluble on expression in E. coli” value was “soluble”.
In the case of “MSNTIRLSGIAYESLVNGPGIRRVFFSQGCKHNCIGCFNPDTHDFNGGEERDIEELIKDLADNPFIDGVTFSGGDPLEQANKFIYIAKAARELGLNIWSYTGYKFEYLLEHANEFNKWKEYLENIDVLVDGKFDINKKEDGLKFRGSSNQRIINVKESLKEGKVIELEFLEHHHHHH”, the “soluble on expression in E. coli” value is reported as “not soluble”.
For “MGSDKIHHHHHHMEIKKGTWIIKKGFAEMFKGGVIMDVTSAEQAKIAEEAGAVAVMALERVPADIRKEGGVARMASIAKIREIMEAVSIPVMAKVRIGHIAEAKILEELGVDFIDESEVLTPADDRFHINKHEFKVPFVCGARDLGEALRRIAEGAAMIRTKGEAGTGNVVEAVKHMRRVMEQIKQVTKMEDEELVAYGKEIGAPVELLREVKRLGRLPVVNFAAGGVATPADAALMMMLGADGVFVGSGIFKSKDPRKMAKAMVLAVTYWDNPRILLKISEDIGEPMRGLDVEELEVRMQERGW”, the “soluble on expression in E. coli” value was “not soluble”.
With “MAHHHHHHMGANGSKTASSSSAVPAATTTTGDNKGTVNRWYGAVSDASDADLGLAPDVSLSSDISTPEENAAKRKAYAHLQSPYARHQLAASMKGRGSSGNNGAEASATAHVNLIEQIYNEDFETIDHIQALRLPPMVSQQLKNTVRSEAERRCAEVEKTMARCLQDKMWTSWKCQKERDTYYHCVEEIEQRNLRPDPTNPHWVDMLTSFRWKYNLGVFHGEIIGRNNIMKQIWREHYPDRELPHPWVKDA” the “soluble on expression in E. coli” value was “not soluble”.
With “MGSDKIHHHHHHMFVGMDFGTTNSAVALAGADGSVEVLNFAAATGAASTLRSVLAFENARRDAQRRILPLAGHEAIEAYLHGDGDCRFLQSFKSYLTSRSFTSTAIYGAPYSLEELVALIIAQLRRTAEAAGAKVERVVAGRPVRFVAEGGEEEDAYATGRLVEAFAKAGITDVVFEYEPIAAAYYYESTLTRDQTVLVADFGGGTSDFCLIRLGPGRAGLARPEDAIIGTAGVGIAGDAFDRRIVEHGLSGHFGKYTTYVSDGKVLPMPAWVYAKLERWHHVAFLNTPSTMRLLRDLLRQVEHPDQVEQLLALIEHNLGYHLYRAVEQAKRDLSSADETVLRFDHDPVVVERRVTRAEFESWIGKELSAIESCVDGLLDGTGTALAQVDRVFLTGGSSLVPAVRAIFANRFGEDRLSAGGEFISVATGLAQRAREMG” the “soluble on expression in E. coli” value was “not soluble”.
In the case of “MGSDKIHHHHHHMHFSKEHINALETRTRAHFINSLSGFKSANLIGTQDRQGNTNLSIVSSVIHLGANPPLMGMIIRPHSVPRHTFENIMQTGLYTINHVNQSIYEQAHQTSARYDKDESEFEATGLTPEYLSDFCAPFVKESRLKYSVKLVEHQHLAINGTEFVIGEIVDVYVDDNAVQTDGFIDLQAIDTVAISGLDCYYTGDKLARLPYAKK”, the “soluble on expression in E. coli” value is reported as “not soluble”.
In the case of “MEDKVDVLIIGGGASGVTSGIQSARMGANTLILEESTWLGGMLTSAGVSAVDGNYRLPAGLWGEFKNRLSDYYGGLDSLKTGWVSNVLFEPSVGNKILHEMVAAENNLKVWKQACLEEVKRTGDEWVAKVKVEGQGVKTVRAKVMIDATELGDVAKMCGLEHHHHHH”, the “soluble on expression in E. coli” value is reported as “not soluble”.
In the case of “MGSDKIHHHHHHMIRMNISVRNLKEITDLLSTIVSEAKFKVDENGMSVTAVDPAHVAMIRLEVPKEVFSEFRSDGTEEIALDIDRLKSVIRLANSSENVGITKDKEKLKFDLGNISKSVSLLDPSTIVTPKIPNIASEYYAIIKRSDFERGLRAAEDISDSIRFVLSSEGFRATSHSESEESEMVLPKDMLSDLSCSDTIKSSYPLEYLLKFIKAVSSADSLKISFRDDYPLSIEFYLDQNPSAKIKGLFLLAPRMEQ”, the “soluble on expression in E. coli” value is reported as “not soluble”.
In the case of “ELNHRVKNTLATVQAIASLTVNSSTSLDSFRKSFDARLFALSQARAEWMSTELADLLAQLQDVNGGQHRITFTGDP”, the “soluble on expression in E. coli” value is reported as “not soluble”.
In the case of “MMNEYRFHLEKYRLGNRYTCPNCERKRCFTRYIDDEGEVSFPDNVGKCDHEHSCGYHYTPKDYFREHPDFLSKDKLPYPTRGNTQPKVVEKPISYIANAIMERSLSHYGINPLYQYLSKVFGEQETERLMKMYHVGTSYKWGGSTIYWQVDKDDKVRTGKVMLYNPKDGHRVKEPRSYVGWAHAFLHLPDFNLCQCFFGEHLLAQHPTMSVAIVESEKTAIIASHFIPNFIWLATGGMHGCLNQIAVKVLGGRDIILFPDLGATDKWKSKIPLLQSVCKRVVISNILEDNATDEQKTKGLDIADFLLMAETPQMALQRLIKQHPPLKHLIDCLGLVLVEES”, the “soluble on expression in E. coli” value is reported as “not soluble”.
For “MSLPIDTWFPLAVSRNLLTPDPALHERMVAQIFQWRGDLWANPSGESAWTGDMNGVALVHEHPDFAWLRSQVEVEALQFCQALGFQTEALQLWIQRSWPVVSEPGQSIGAHHHPNAHLSAIYYLNGSGDPELGALRIFDDRPRNELVPGLAVGYGEVIAEEAALNQAWIDYPPQAGLLLMFPASTRHGVTENLTDLTRLSVSFDLYLTARSATELAPEYLAPPVNRWSPIQLREGHHHHHH”, the “soluble on expression in E. coli” value was “soluble”.
In the case of “MDCKELARIFYALSEPKRLCMVKLLLEREELCVCDFMRIFKESQPKISFHLKVLREAGLVTSQKRGKWNYYRLNKEAPVIPCVEKLLKDVKLEEKIQLEVKR”, the “soluble on expression in E. coli” value is reported as “soluble”.
In the case of “MARFTDKVAIITGSSNGIGRATAVLLATDGAKVTITGRDAARLEETRQAILKAGISATNVNSVVADVTTAEGQDLLISSTLDKFGKINILINNAGANIPDSQGQTRTKCSIENLTKMFQLNLQSVVEMVQKVRPHLAKTRGEIVNISSIGAGPAAQPASPYYSSAKAALDQYSRCAAIDLISEGIRINVVQPGFVSTGFSTAARGLSADESVKFYDLMGSLPHCIPAGYCGQPDHLASVIAFLVDRKVSEYIVGQTIIADGGSSLVIGCHAPRQ”, the “soluble on expression in E. coli” value is reported as “not soluble”.
In the case of “AHHHHHHGSNFQQEILIIKSEIYPIVSKHYPKNTRREVISLYDLITFAILAHLHFNGVYKHAYRVLIEEMKLFPKIRYNKLTERLNRHEKLLLLAQEELFKKHAREYVRILDSKPIQTKELARKNRKDKEGSSEIISEKPAVGFVPSKKSFTMGTS”, the “soluble on expression in E. coli” value is reported as “not soluble”.
In the case of “MIICKTPREIEIMREAGRIVALTHQELKQHITPGITTKELDQIAEKTIQKYGATPSFKGYNGFPGSICASVNEELVHGIPGKRKLKEGDIISIDIGAKYNGYHGDSAWTYPVGNISESVQKLLDVTEKSLYLGLEQVKPGERLSNISHAVQTHAEENGFSIVREYVGHGIGQDLHEDPQIPHYGPPNRGPRLKPGMVICVEPMVNQGRRYVKTLSDDWTVVTVDGKWCAHFEHTIALTEAGYEILTTL”, the “soluble on expression in E. coli” value is reported as “soluble”.
